Experiment: soluble on expression in E. coli; label from the status in PepcDB or PDB records

Sequence | soluble on expression in E. coli
MGSDKIHHHHHHMNLATPSQMTAASIETFDATSCAAFSACYPETPHKLVHRLRDHPLLQLDALAALGEELPAHSVEYNRADLPIGLNGGKAPPNGIGIGETIRNIASTGSWAALKNVEQVPAYAALLGELLEGLRPTIEARTGAMLKPQGFVFVTSPDGVTPYHFDPEHNILLQLMGSKVMTMFPAGDSRFAPDETHETYHTGGGRELFWRDELLGHGRQWPLSPGEALYVPVMSPHFVTNGPSPSVSLSITWRSEWSFAEADARAFNGLLRSMGLKPGAPRRWPASNRAKAMCWRLYGKVRGLR | not soluble
MANDIVPQDENGAGMPVEFDASTITGEEKAAILLLSLNEQDAAGIIRHLEPKQVQRVGSAMARAKDLSQEKVSAVHRTFLEDIQKYTNIGMGSEDFMRNALVAALGEDKANNLVDQILLGTGSKGLDSLKWM | not soluble
MSLILENEVIWDPERYVLGNYIQNKINDVFLKTIHSKLSGNILDIGCGDGHYTSLLAGKVKHGQILGIDSSEQMIMHANQQWARTGLSFEVHNIEEFHQPQSFDLVLSFWCLHWTNIHISFPNIFHLLKREGKLYAVMSSFSDHSILQTWKELAKQNLYRDLTKQYISPINEQYFYGVINLLNRLPFKRIKLDLKTCRVHLPHIDYYKNLLLTMPFIKRVPSEITDTLVEDMLKAFQTICDRKYGGELYYETRPIFLEAIKEGHHHHHH | not soluble
MGSDKIHHHHHHMSEMMIVAVTGGKGGTGKSTLSANLFFYFIENYKTALIDCDVETPNLPYLTGCEDLFLAREVFIEVPNIEEGKTYNYNNVCKEGALLKVGDKLIFIEDLCSGCKACGINSNITFKKKSIGKIYEKKFDNGYLIVGKSNLGERKTAKIVTETKKYGLSKNCEINIVDTAAGTHCNVVRALINADKVLIVTEPTPFGVSDAKRIIKVVEKLNIPYKIVLNRYGISDLKIGYNFKIPYDKRIVECYCKGESFLKYNDLRNYIEEIANWIIWG | not soluble
MGSDKIHHHHHHMRTLKELERELQPRQHLWYFEYYTGNNVGLFMKMNRVIYSGQSDIQRIDIFENPDLGVVFALDGITMTTEKDEFMYHEMLAHVPMFLHPNPKKVLIIGGGDGGTLREVLKHDSVEKAILCEVDGLVIEAARKYLKQTSCGFDDPRAEIVIANGAEYVRKFKNEFDVIIIDSTDPTAGQGGHLFTEEFYQACYDALKEDGVFSAETEDPFYDIGWFKLAYRRISKVFPITRVYLGFMTTYPSGMWSYTFASKGIDPIKDFDPEKVRKFNKELKYYNEEVHVASFALPNFVKKELGLM | not soluble
MGSDKIHHHHHHMTLRARIQTAVSLVYPARCLNCGGLVESDFGLCGACWRDTTFISGLVCEGCGAPLPGEDDGQMVHCDACLRAPGEWDRGRAALVYTGQGRRLVLALKHGDRTDLVRPASAWMARAARVLLSPKPLLVPVPLHWTRLLHRRYNQSALLAQAIAAREECDCCPDALIRVAKTPMLEGYSRSERRALLSDAIRPNPRMASRLKGRRVLLVDDVMTSGSTLSACARACMDAGAKSTNVAVLARVTGS | not soluble
MAHHHHHHMKRLIQSLQHFSVTSSEHVELFSKITLRDFGFYVSDADAMRYVADEAYSIAERAFQLENALHQHRLSASTAQVSPMAWKSSSNDTVGCSTLYQDEAVTLCWFVLPPGKVLPLHDHPGMTVWQRAMHGRLHLCSITREAVSQTSTGASTAPINGTVVFDGELDGVGDAIPASDVLGFTPTDGDGGGMLHEIRNIDATQPALFVDIISPPYNQASSSMVCGYYTAEPLNATATLLPALAADCGVRHQLKAGDKVRLRPRTNYSGPAMNAFLHVV | not soluble
MEDPLGRLEWIKFLSAFYDKEDKAENYFNQQVSKVMATENKVSSLKKPKVAFGMVDNGKVYIPAKNSYAAKMVDMAGGDYIFKDLNNKSGYITLEDFYSKSKDADVLIYSSSKEYTPSLKSMLSAAPILKTIKPVKNKKVWCFGKDYYQAIDKTDEIIEDLASIFHPESFKGYKIKHYSHLEHHHHHH | soluble
MNGNSTNNEQLQQELATTQDQVASIIESFVELGVSIYDFPGTPEATKGMITNLQRNVDRLYKLNVRSNDPQSSLSKVDIPLEVVQYIEDGRNPDIYTREFVEAIRRSNQYQRGKMHGLKQLRDSLADKIVDEFPELKEPVEDIIKRTSPIDNVSNTH | not soluble
MSLGLGSSNRQTDDWNAKLYDERHRFVSAYGEDLIQWLAPKEGECVLDLGCGTGDLTEQIHQLGSRVIGVDVSESMIEQAKGKFPHLDFQVAEATDLSFSEKFDAIFSNAVLHWIKDAEEALTVIYRSLKPGGRFVAEFGGKGNVETIVNTLADTMSQADSRWSKEELPWFFPSIGQYTSLMEQVGFRVTHALHFNRPTLLEDGDGIRHWLAMFAESVLEGKSETERAEIVRFVEAEVKDALFDGTNWWADYKRIRVVGMKQEGHHHHHH | not soluble
YLGEVYTAKTDDGVKIKLLRYHPPGEGVNDGVQPVVLFSGLLCNMNEYLTHTPPELKDLYKTQLPSELADWAVGDERIQQDPMLYYSLAYYLWKQGYDVWLVNYRGTGVGELKSGVGSARTSLDTWAIYDTKAAITKVYEVTGKHPVIGGHSTGGLVSYVYLQGAKFKWTFACLFKKPWCKKVVSDDDLVRERNGLTEGEETVVGVIALDPAMIPPLPKLTDLKLMWLLLDTPLYIDIRGIMNLIAKNDRLWCATTHTIDEVFELIFEMNEEYGQYSELIRDLTFTNPGNMNDELNDFLVRYVADSLYTPTLAHYNDFGTHRTAREYFENGGRSYLIVPPEPNPGKDGYYYYILNMQKVRVPFITLLSEYDALVEAEQIIRDLMEAKTPHQFDEYYIIEGTAHLDLPFGLKAPSEVFPKVGAWLEK | not soluble
MSLYKAYLIDLDGTMYRGAEVIPEAIIFIENLKRAGLPYLFVTNNSTKTPGQVAEHLTDMGIQAVSDDVFTTSQATVQFMMEQKREKTVYVIGERGIKQELTDNGFEITSSNPAFVVVGLDREVDYEKFSKAALAVRGGAMFISTNGDAAIPTERGLLPGNGSITSVVSVATETAPIFIGKPESIIMEQALAKLGVHKDEAIMVGDNYETDIMAGINYGMDTLIVHTGFTSKEALLTKEIQPTYAVTKLTDWEFNEGHHHHHH | not soluble
MRGSHHHHHHGMASMTGGQQMGRDLYDDDDKDRWIRTGGYQPTLWDFSTIQSFDSEYKEEKHLMRAAGMIDQVKMMLQEEVDSIRRLELIDDLRRLGISCHFEREIVEILNSKYYTNNEIDERDLYSTALRFRLLRQYDFSVSQEVFDCFKNAKGTDFKPSLVDDTRGLLQLYEASFLSAQGEETLRLARDFATKFLQKRVLVDKDINLLSSIERALELPTHWRVQMPNARSFIDAYKRRPDMNPTVLELAKLDFNMVQAQFQQELKEASRWWNSTGLVHELPFVRDRIVECYYWTTGVVERRQHGYERIMLTKINALVTTIDDVFDIYGTLEELQLFTTAIQRWDIESMKQLPPYMQICYLALFNFVNEMAYDTLRDKGFDSTPYLRKVWVGLIESYLIEAKWYYKGHKPSLEEYMKNSWISIGGIPILSHLFFRLTDSIEEEAAESMHKYHDIVRASCTILRLADDMGTSLDEVERGDVPKSVQCYMNEKNASEEEAREHVRSLIDQTWKMMNKEMMTSSFSKYFVEVSANLARMAQWIYQHESDGFGMQHSLVNKMLRDLLFHRYE | soluble
GMSVVDPSLIERIIRDDVRAMGAYHVPDSHGLVKLDAMENPYRLPPALRSELAARLGEVALNRYPVPSSEALRAKLKEVMQVPAGMEVLLGNGSDEIISMLALAAARPGAKVMAPVPGFVMYAMSAQFAGLEFVGVPLRADFTLDRGAMLAAMAEHQPAIVYLAYPNNPTGNLFDAADMEAIVRAAQGSVCRSLVVVDEAYQPFAQESWMSRLTDFGNLLVMRTVSKLGLAGIRLGYVAGDPQWLEQLDKVRPPYNVNVLTEATALFALEHVAVLDEQAAQLRAERSRVAEGMAAHGGVTVFPSAANFLLARVPDAAQTFDRLLARKVLIKNVSKMHPLLANCLRVTVSTPEENAQFLEAFAASLQD | soluble
MFCDRIRGSLTKDKERIMSSKNYIDVIIDGKIYNIGGFESEAYLQKVASYINNMIAEFKQNENYRVQKVDMQRILLEINIANDYFKAKKQADLLQNDIELKEKEVYDLKHELIVSDSKAETATKELNEALEKIESLEKEIIKLQTELEK | not soluble
MEFYGPITGEKFAFLLFRDNGEVIEFNHWSQVKEYKSELKISKSSIQIFLRNGCVYPPYTIYSNVLMLPIGTKLTIDIKNDIFKWENNFCFLDRHSKQDSKPSTSKLKTLIANSFAHLKKEVKPIYMMQSAGKDSTAMLLGLHEQGIQNVHCVTYEANFRDTESDAAKKIAESLGFEHTILFPNYEAEFDALLEYQENAVSITGDFSMLPYIAANKSVFKSDSLVIDGLGNDLYMGYVSNKLERSIMKCSLGNFSYLEPSKFTSNEVINYAISSIFMKPYERLFPGTRLSSSEIENFTDNKFIDDDAIYFSKQYNNLDKDDFRAAIRARFCDSTMFQMKAELTTNSFGNEVYFPFSNKELVDYYFNLPIEERYDKANSCNKTLLRSMLNEYVEVDDFFKVKSGFRYNMPEFITINKEKIKKEIIECDLLEQDYSNRFFAKHLDVQKVNYTSACKAYILLVFASWRNRNKLAVVDGHVADKFDWY | not soluble
MSVNEADLNAVEEQLGRAPRGVLDISYRSPDGVPGVVMTAPKLDDGTPFPTLYYLTDPRLTTEASRLEVALVMKWMTDRLSTDEELRADYQRAHEHFLAKRNAIEDLGTDFSGGGMPDRVKCLHVLIAYALAEGPDHFRLGTEAVAMAAEHGDLRGTAIPEDWPTVQDLGINMEDFDFSRAGGA | not soluble
MSDSDLKEIEKNAENIKLEPAEDEVNEEDQNEITIPELPEGRVLELRLLSNWGDSHYIGLNSVEIFTSTGERAVIDKIATNVTEYTGSLESLIVQRVHCKDAEKMWCAKTTEEKIVLTLELKETCKLALIRFWNYNASRVHAQIGVRYLEMYLDGVGIFRGELECAFSADSEFTPVMGETVLFTTSDNILELIALHDVCLISLPEEPISNSSIEMLKADHLTPYRPSTCEAKDAPSTPVTIVPPPIFRQTGTAYKHDVKTLHIELLSNWGMDGLIGLTGLELVDEHSQLIDESQYTVTTSDGNSDLSKKLFNGRNLTRDPHDMWLVDFDSKNFTTISITFHDNVALKAISVWNYNASFELSYAGVKAAKIYINGKLIKNVLLRKATGFVYFDYVQDVVLDPNNTERDFVPKGISQSIGGFVFQIRLLSTWGDEFYIGLNGIELYNRKGELMKIREHNLAAFPESVNILPNIKNDLRTSNNLITQPNDTDIARNMWLTALLPNRCARVFFVFDVQTYISKIVIYNYRKTPERGVRHISVTVDDLIIFSGEIPSSTATLTGNLEINLMDI | not soluble
MKPVKVGICGLGTVGGGTFNVLERNAEEIARRAGRGIEVAQIAARRPNPKCDTGATPITADIFDVACNPEIDVVVELIGGYTLAHELVLKAIENGKHVVTANKALIAVHGNEIFAKAREKGVIVAFEAAVAGGIPVIKAIREGLSANRINWLAGIINGTGNFILSEMREKGRTFPDVLAEAQALGYAEADPTFDVEGIDAAHKLTILASIAFGIPLQFDKAYTEGISKLTSADVNYADALGYRIKHLGVARRTESGFELRVHPTLIPSDRLIANVNGVMNAVMVNGDAVGSTLYYGAGAGMEPTASSVVADLVDVVRAMTSDPENRVPHLAFQPDALSDHPILPIEACESAYYLRIQAKDHPGVLAQVATILSERGINIESIMQKEAEEQDGLVPMILVTHRVIEQRINDAIAALEALEGVSGPVVRIRVEQL | soluble
HETENAWRETEERLAATYQAATIGIAESDADGRLLRVNDAFCTMLGRSREQLLNMTFLDYTHEDDRDEEARCYARQVSGETDTYAIRKRAVKADGTVIYLDVYSSTVRDRTGRFRYGVRVLLDVT | not soluble

Reference: the DeepSol protein solubility set
